Assay results published in patent US20030027246A1, “Immunogenic peptides derived from prostate-specific membrane antigen (PSMA) and uses thereof” (priority 2000, published 2003).
Marks after values point to notes of the source that are not given here.

Columns and labels:
[1] = molecular target: T1, HLA-A0201 molecules on T2 cells (Homo sapiens, UniProt P04439, D140Y/D185E/D98H/E176V/E277Q/G131W/G231S/I119V/I121R/I166T/I218V/L300P/L318F/N151K/N90K/P208A/P217A/Q86G/Q94H/R138H/R169H/T345S); assay: HLA-A0201 binding/stabilization of PSMA derived peptides on T2 cells (BB7.2 flow cytometry); assay type: cell-based; details: for HLA-A0201 binding as judged by Fluorescence Index (FI) values: membrane-bound HLA-A0201 on T2 cells, result in words; for Fluorescence Index (FI): T2 cells
T1 construct: endogenous in cells; host or cells: T2 cell line (Dr. Peter Creswell, Yale University)
Protocol: The ability of the PSMA derived peptides described in Table 1 to stabilize membrane-bound HLA-A0201 molecule was assessed utilizing the T2 cell line (Dr. Peter Creswell, Yale University). The cell line has been well documented to have a defective TAP (i.e. Transporter for Antigen Processing) transporter function. […] The stability of the surface HLA-A0201 molecules can be restored upon interaction with suitable exogenous peptides. The stabilization of the conformation of the class 1 MHC molecules is accompanied by the formation of an immunodominant epitope recognized by a mouse monoclonal antibody (designated BB7.2; American Type Culture Collection (ATCC)). Thus, the detection of this specific epitope is indicative of stable membrane-bound HLA-A0201 molecules loaded with peptide.
T2 cells were propagated in Iscove's complete medium (Iscove's medium supplemented with 10% heat-inactivated bovine serum, 120.0 units per ml of penicillin G sodium, 120 μg per ml of streptomycin sulphate, and 0.35 mg per ml of L-glutamine). The ability of PSMA peptides (Table 1) to bind and stabilize surface HLA-A0201 molecules on T2 cells was determined utilizing a protocol documented in the art (Deng, Y. (1997) J Immunol 158:1507-1515). In essence, 0.5×10^6 T2 cells were incubated with 125.0 μM of the test peptide in 200.0 μl of serum-free culture medium (Iscove's medium supplemented with 120.0 units per ml of penicillin G sodium, 120.0 μg per ml of streptomycin sulphate and 0.35 mg per ml of L-glutamine) overnight at 37° C. Subsequently, cells were washed twice with Iscove's medium (without bovine serum) to remove free PSMA peptide. To the cell pellet was added 1.0 ml of complete Iscove's medium (supplemented with fetal bovine serum (10% final)) containing 5.0 μg per ml of brefeldin A (Sigma), 12.5 μg per ml of anisomycin (Sigma) and 5.0 μg per ml of cyclohexamide (Sigma). […] The cells were subsequently incubated 30 min on ice prior to two washes with ice-cold PBA (phosphate buffered saline (pH 7.2) containing 2.0% bovine serum). 100.0 μl of PBA containing 5.0 μg of monoclonal antibody BB7.2 was added to each test sample. The reaction was allowed to proceed on ice for 45 min. Cells were then washed three times with ice-cold PBA. The binding of BB7.2 was detected via the addition of 100.0 μl of PBA containing 1.0 μg of goat anti-mouse IgG-Fc fluorescein (FITC) conjugate (BETHYL Laboratories Inc.). After a 30 min incubation on ice, cells were twice washed with ice-cold PBA, and twice with ice-cold PBS (pH 7.2). Cells were immediately fixed by the addition of 50.0 μl of 1.0% paraformaldehyde. Samples were analyzed by Flow Cytometry. Results were expressed in units of Fluorescence Index (FI), calculated by the equation: [formula]
An FI value of 0.5 or greater was deemed to be significant.

A2Kb transgenic mouse = assay: Immunogenicity of PSMA derived peptides in A2Kb transgenic mice (51Cr-release CTL assay); assay type: in vivo; details: 100.0 μg peptide + I-Ab-restricted peptide in IFA s.c.; splenocytes re-stimulated 6-7 days; 4 hr 51Cr-release vs peptide-pulsed P815-A2Kb targets
Protocol: The A2Kb transgenic mouse was used to assess the immunogenicity of the HLA-A0201 binding PSMA peptides. Mice of the B1O background (transgenic for the A2Kb chimeric gene) were purchased from the Scripps Clinic in California, USA. Mice were injected subcutaneously at the base of the tail with a dose of inoculum prepared by emulsifying 100.0 μg of the test peptide and 100.0 μg of an I-A^b-restricted peptide (described in Milich, D. R. et al. (1987) J. Immunol 139: 1223-1231) in incomplete Freund's adjuvant (IFA). Spleens of the experimental animals were collected on the 10th or 11th day post immunization. Spleenocytes of the experimental mice were prepared and cultured to enrich for CTLs before being assessed for effector activity. In vitro re-stimulation of the in vivo generated CTLs was performed by co-culturing in a 25 cm^2 tissue culture flask 3×10^7 responder cells (i.e. spleenocytes) with 1.3×10^7 irradiated autologous LPS (lipopolysaccharide)-blasts which had been pulsed with the respective peptide (100.0 μg per 10^8 cells). Cultures were kept in a 37° C., humidified CO2 incubator for 6-7 days before being tested for effector function in a standard 4 hr in vitro ^51Cr-release CTL assay as follows. […] Supernatant aliquots were then removed and counted for radioactivity.

[2] = 125.0 μM test peptide, overnight at 37° C., then 3.0 hr de-stabilization step, FI of 0.5 or greater deemed significant

| Sequence | HLA-A0201 binding as judged by Fluorescence Index (FI) values [1] | Fluorescence Index (FI) [1, 2] | further results |
| --- | --- | --- | --- |
| MMNDQLMFL [CLP-336] | demonstrated HLA-A0201 binding |  | Immunogenicity: epitope-specific CTL responses (FIG. 1) (A2Kb transgenic mouse): immunogenic and capable of eliciting epitope-specific CTL responses |
| WLCAGALVL (CLP327) [CLP-327, PSMA derived peptide, amino acid position 20-28] |  | 0 |  |
| PMFKYHLTV [CLP-334] |  | 0 |  |
| LLHETDSAV [CLP-326] | demonstrated HLA-A0201 binding |  |  |
| LDSVELAHY (CLP324) [CLP-324, reference compound] | does not exhibit binding |  | Fluorescence Index (FI) ([1]; 125.0 μM peptide, analysis did not include 3 hr de-stabilization step): 0** |
| ALFDIESKV (CLP337) [CLP-337, PSMA derived peptide, amino acid position 711-719] |  |  | Immunogenicity: epitope-specific CTL responses (FIG. 1) (A2Kb transgenic mouse): immunogenic and capable of eliciting epitope-specific CTL responses |
| ELAHYDVLL (CLP330) [CLP-330, PSMA derived peptide, amino acid position 109-117] | demonstrated HLA-A0201 binding | 0.7 |  |
| LMYSLVHNL [CLP-333] | demonstrated HLA-A0201 binding |  |  |
| VLAGGFFLL (CLP328) [CLP-328, PSMA derived peptide, amino acid position 27-35] | demonstrated HLA-A0201 binding | 1.3 |  |
| NMKAFLDEL [CLP-329] |  | 0 |  |
| VLRMMNDQL [CLP-335] |  | 0.3 |  |
| NLNGAGDPL [CLP-331] |  | 0 |  |
